pKd: −log10 of the molar value.
Columns and labels:
[1] = biological target: SARS-CoV-2 main protease with the mutations E290A and R298A (MPro^M) (SARS-CoV-2); assay: AUC; sedimentation velocity, 50,000 rpm, 25 °C, buffer A; MPro^M at 18-90 µM, without inhibitor
[2] = biological target: SARS-CoV-2 main protease with the mutations E290A and R298A (MPro^M) (SARS-CoV-2); assay: not stated; 10 µM MPro^M with a 10-fold molar excess of GC376 (100 µM); told with the CD spectra
[3] = biological target: SARS-CoV-2 main protease with the mutations E290A and R298A (MPro^M) (SARS-CoV-2); assay: AUC; sedimentation velocity, 50,000 rpm, 25 °C, buffer B with 0.1% DMSO; MPro^M at 6-7 µM with GC376 at 1-50 µM
[4] = biological target: SARS-CoV-2 main protease with the mutations E290A and R298A (MPro^M) (SARS-CoV-2); assay: enzyme kinetics (calculated from rate constants); dimer to monomers (K1); MPro^M, calculated from the slope of rate against [Mo]^2 (Eq. 3) and from k3/Ks found with GC376 (Eq. 6); buffer B, 28 °C

Substance: SARS-CoV-2 main protease with the mutations E290A and R298A (MPro^M) (enzyme)
- pKd [1]: < 4.05
- percent dimeric with 10-fold molar excess of GC376 [2]: 90%
- free monomer concentration [M] at [Mo] 10 µM and GC376 10 µM [3]: 5e-06 M
- stoichiometry N [3]: 2
- pKd [4]: 2.18
